Target: galactose-deficient IgA1 (Gd-IgA1), enzymatically generated (UniProt P01876)
Test: dot blot, anti-His detection

UniProt P01876, sequence (P01876 other isoform, or with tags, fused parts or gaps): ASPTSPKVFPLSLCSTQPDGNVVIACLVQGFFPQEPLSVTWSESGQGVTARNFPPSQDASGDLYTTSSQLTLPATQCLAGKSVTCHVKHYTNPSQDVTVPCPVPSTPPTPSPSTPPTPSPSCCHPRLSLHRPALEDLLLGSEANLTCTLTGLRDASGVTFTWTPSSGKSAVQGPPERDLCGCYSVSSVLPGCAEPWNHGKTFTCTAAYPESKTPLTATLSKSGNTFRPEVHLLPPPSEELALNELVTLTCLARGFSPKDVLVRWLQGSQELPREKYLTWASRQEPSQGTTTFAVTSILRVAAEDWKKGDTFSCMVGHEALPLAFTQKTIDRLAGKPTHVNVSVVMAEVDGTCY

Q: With “RussiaSea-001 (Crenomytilus grayanus lectin/CGL), His-tagged (artificial RussiaSea-001) (from UniProt H2FH31 1-150)” as the substance, how does the amount of Gd-IgA1 detected in dot blot read?
A: > 1 µg

Source: patent publication US20210123927A1
